The results in this text go back to patent publication US20240002499A1, “ANTI-CLIC1 PROTEIN ANTIBODIES AND THE DIAGNOSTIC AND THERAPEUTIC USES THEREOF” (Universita' Degli Studi di Milano, priority 2020, published 2024).

Data set [1] addresses T1, tmCLIC1 ion channel (Mus musculus, UniProt Q9Z1Q5).
T1 construct: endogenous in cells; host or cells: BV-2 mouse microglial cell line
Nature of the data set: Whole-cell patch clamp on BV2 microglial cells with β-amyloid. The class given is cell-based, mice. Conditions: whole-cell configuration, perfusion of antibody after β-amyloid. The text has this: (§1) The microglial cells used (BV-2) originated from an immortalised cell line deriving from C57BL/6 mice and commonly marketed. The culture medium used was RPMI (Thermo Fisher Scientific) with the addition of 10% FBS (Euroclone) and 1% Pen/Strep ([…], Thermo Fisher Scientific).
The microelectrodes were obtained from borosilicate capillaries with a diameter of 1.5 mm. Micropipettes were produced with a P-97 Brown-Flaming puller (Sutter Instruments, Novato, CA), with which the capillaries were forged to a tip diameter of 1-1.5 μm and electrical resistance of 5-8 MΩ.
The perforated patch clamp configuration was used for the whole-cell experiments, employing the antibiotic gramicidin (final concentration in pipette 5 μg/ml) which forms pores in the membrane that are only permeable to monovalent cations; in this way, the cytoplasmic concentration of the chloride ion remains unchanged throughout the experiment. The ion currents were digitised at 5 kHz and filtered at 1 kHz. Clampex 9.2 was used as the data acquisition and analysis programme.
In the time-course experiments, the potential was set on the basis of the resting potential of each cell, and a voltage step of +60 mV was applied every 5 seconds. The current measured is that observed at the end of the voltage step lasting 800 ms. When the amplitude of the current reaches a constant value, the antibody and IAA94 are added in sequence. […]

Data set [2] deals with T2, tmCLIC1 (Mus musculus, UniProt Q9Z1Q5).
T2 construct: endogenous in cells; host or cells: BV-2 mouse microglial cell line
Nature of the data set: Immunofluorescence on live microglial cells. Conditions: live microglial cells before and after stimulation with β-amyloid. The class given is cell-based, mice. The procedure:
The migration of the protein to the plasma membrane gives rise to insertion of CLIC1 as transmembrane protein. The tmCLIC1omab antibody was used on live cells to specifically identify tmCLIC1. […] In live cells, the tmCLIC1omab antibody was used before (B) and after (C) stimulation with β-amyloid.
Immunofluorescence analyses were conducted to evaluate the specificity of the antibody in binding the transmembrane portion of the CLIC1 protein in WT and Clic1^−/− cells. The cells (5×10^4 cells/well) were plated on slides (ϕ12 mm). The cells were kept viable throughout the initial processes. The cells were washed three times with PBS Ca^2+/Mg^2+, and incubated for 45 minutes at room temperature in blocking solution (5% BSA in PBS). Subsequently, after removal of the blocking solution, the solution containing the antibody (3.5 μg/ml in PBS/BSA 5×) was added, and incubated for 1 h at room temperature. After three washes with PBS Ca^2+/Mg^2+, the cells were fixed with paraformaldehyde (PFA 2%) for 5 minutes at room temperature. After being washed three times with PBS Ca^2+/Mg^2+, the cells were incubated with secondary antibody Alexa Fluor 488 (Thermo Fischer Scientific) for 2 h at room temperature in the dark. […] The slides were observed through a Zeiss Examiner A1 fluorescence microscope with a Zeiss 40×/0.75 NA water immersion lens.

In data set [3] the target is T3, peptide […] (amino acids 3-24 of the CLIC1 protein) (Homo sapiens, UniProt O00299).
T3 construct: conducted against the peptide […]; (amino acids 3-24 of the CLIC1 protein); host or cells: synthetic peptide microarray (PEPperMAP)
Briefly: PEPperMAP epitope mapping on CLIC1 peptide microarrays. The class given is binding. The procedure:
PEPperMAP epitope Mapping® of the tmCLIC1omab antibody was conducted against the peptide […] (amino acids 3-24 of the CLIC1 protein) translated to linear peptides consisting of 5, 10 and 15 amino acids with peptide-peptide overlaps of 4, 9 and 14 amino acids for high-resolution epitope data. The resulting CLIC1 peptide microarrays were incubated with the antibody samples at concentrations of 1 μg/ml, 10 μg/ml, 100 μg/ml and 250 μg/ml in incubation buffer, followed by staining with secondary and control antibodies and reading with a LI-COR Odyssey Imaging System. The intensity of the points and peptide annotation were quantified with the PepSlide® Analyzer.

Data set [4] has as its system human glioblastoma cells. Nature of the data set: ROS production in human glioblastoma cells in primary culture. In kind it is cell-based. On the procedure:
In the subsequent functional experiment, ROS production was measured over time. The graph in FIG. 11 relates to the acquisition of fluorescence signals proportional to the amount of cytoplasmic ROS in glioblastoma cells. The cells were treated with both the antibody and the tmCLIC1 channel blocker.

Data set [5] relates to microglial cells. Briefly: Growth curves of microglial cells stimulated with β-amyloid. In kind it is cell-based, mice. Conditions: 1 μM β-amyloid, 4-day observation period. The procedure:
as §1
(§2) The cells were seeded in 24-well plates (20,000 cells/well) and counted after 24, 48, 72 and 96 hours to construct the growth curve. The cells were collected and centrifuged, and the resuspended pellet was diluted 1:1 with Trypan Blue. An automated counter (Countess II, Thermo Fisher Scientific) was used to count the cells. All data were normalized to their controls.

Data set [6] relates to Metalloproteinase 7 (MMP7). Nature of the data set: Western blot of Metalloproteinase 7 in COLO201. In kind it is cell-based. Conditions: COLO201, 72 h of treatment.
Data set [7] deals with mouse glioblastoma cells. Briefly: Glioblastoma cell growth curves, polyclonal antibody versus tmCLIC1omab. In kind it is cell-based. Conditions: exposing cells for 96 hours. The procedure: as §2
The cells were plated in 24-well multiwell plates at a density of 10,000 cells/cm 2. The number of live and dead cells for each sample was counted after 72 hours with an automated counter (Countess II, Thermo Fisher Scientific), following the same process as used for the growth curves. All data were standardised to the corresponding controls.

B1: tmCLIC1omab: IgG1 class antibody containing the heavy chain variable region SEQ ID NO:13 and the light chain variable region SEQ ID NO:14 (antibody, listed as Mus musculus, V domains shown)
VH: EVMLVESGGGLVKPGGSLKLSCAASGFAFSNYAMSWIRQIPEKRLEWVATISTGGSSTFYPDSVKGRFTISRDNAKNTLYLQMSSLRSEDTAMYYCTRHAYEAWFAYWGQGTLVTVSA
VL: QIVLTQSPALMSASPGEKVTMTCSASSSVSYMYWYQQRPRSSPKPWIYLTSTLASGVPTRFSGSGSGTSYSLTISSMEAEDAATYYCQQWNSHPLTFGSGTKLEIK
With B1, the “reduction of membrane current increased by β-amyloid peptide” value in data set [1] is “about fourfold”. The “recognition of tmCLIC1 on live cells” value in data set [2] is listed as “only reacts from the exterior”. The “binding to the QVELFV sequence” value in data set [3] (linear peptide microarray) is given as “with lower affinity, binds the QVELFV sequence (SEQ ID NO:27) well”. The “epitope sequence for which the antibody exhibits specificity” value in data set [3] (linear peptides of 5, 10 and 15 amino acids, antibody 1-250 μg/ml) was “QVELF”. Besides, in data set [4] (FIG. 11 legend, versus control), the “fall in ROS production” value is on record as “about fourfold”. For the same molecule, the “reduction of the slope of the ROS increase curve” value in data set [4] (fluorescence signals proportional to cytoplasmic ROS) was “about fivefold”. The “cell proliferation in the presence of β-amyloid” value in data set [5] is recorded as “completely inhibited”. The “expression of Metalloproteinase 7” value in data set [6] was “mainly abolished”. The “percentage of cell death” value in data set [7] was determined as 15%.
